Laboratory results reported in publication PMC3517609.
Values joined by “and” are separate entries in the source; they are usually repeats but may differ in a detail not shown here. Identical values can stand only once.

Columns and labels:
[1] = molecular target: Surfactant associated protein-A (human (endogenous in BAL fluid and serum)) (UniProt Q8IWL2)
[2] = molecular target: Surfactant associated protein-A (human (endogenous in BAL fluid and serum)) (UniProt Q8IWL2); experiment: SEC; Superose 6 column, 1 ml of BAL fluid loaded, fractions of 800 µl, SP-A in the fractions by slot blot; column calibrated with blue dextran (2000 kDa), holotransferrin (669 kDa) and bovine serum albumin (66 kDa); a peak counts as present at 20 % or more of total SP-A
[3] = molecular target: Surfactant associated protein-A (human (endogenous in BAL fluid and serum)) (UniProt Q8IWL2); experiment: SEC; Superose 6 column, 500 µl of serum loaded, fractions of 800 µl, SP-A in the fractions by slot blot; column calibrated with blue dextran (2000 kDa), holotransferrin (669 kDa) and bovine serum albumin (66 kDa); a peak counts as present at 20 % or more of total SP-A
[4] = molecular target: Surfactant associated protein-A (human (endogenous in BAL fluid and serum)) (UniProt Q8IWL2); experiment: as above; remark: listed apart in the source

size of agglutinates of anti-SP-A latex beads; BAL, 6mers, chronic bronchitis (n = 10) [1]: 316 Pixel
size of agglutinates of anti-SP-A latex beads; BAL, 6mers, controls (n = 10) [1]: 352 Pixel
size of agglutinates of anti-SP-A latex beads; BAL, 6mers, cystic fibrosis (n = 10) [1]: 234 Pixel
size of agglutinates of anti-SP-A latex beads; BAL, 18mers, chronic bronchitis (n = 10) [1]: 370 Pixel
size of agglutinates of anti-SP-A latex beads; BAL, 18mers, controls (n = 10) [1]: 517 Pixel
size of agglutinates of anti-SP-A latex beads; BAL, 18mers, cystic fibrosis (n = 10) [1]: 316 Pixel
size of agglutinates of anti-SP-A latex beads; BAL, trimers, chronic bronchitis (n = 10) [1]: 114 Pixel
size of agglutinates of anti-SP-A latex beads; BAL, trimers, controls (n = 10) [1]: 118 Pixel
size of agglutinates of anti-SP-A latex beads; BAL, trimers, cystic fibrosis (n = 10) [1]: 74 Pixel
size of agglutinates of anti-SP-A latex beads; serum, 6mers, chronic bronchitis (n = 10) [1]: 377 Pixel
size of agglutinates of anti-SP-A latex beads; serum, 6mers, controls (n = 10) [1]: 361 Pixel
size of agglutinates of anti-SP-A latex beads; serum, 6mers, cystic fibrosis (n = 10) [1]: 380 Pixel
size of agglutinates of anti-SP-A latex beads; serum, 18mers, chronic bronchitis (n = 10) [1]: 469 Pixel
size of agglutinates of anti-SP-A latex beads; serum, 18mers, controls (n = 10) [1]: 525 Pixel
size of agglutinates of anti-SP-A latex beads; serum, 18mers, cystic fibrosis (n = 10) [1]: 481 Pixel
size of agglutinates of anti-SP-A latex beads; serum, trimers, chronic bronchitis (n = 10) [1]: 143 Pixel
size of agglutinates of anti-SP-A latex beads; serum, trimers, controls (n = 10) [1]: 132 Pixel
size of agglutinates of anti-SP-A latex beads; serum, trimers, cystic fibrosis (n = 10) [1]: 146 Pixel
stoichiometry N [2]: 18
stoichiometry N [3]: 2 and 3
stoichiometry N [4]: 18
Substance: Surfactant associated protein-A (from UniProt Q8IWL2 21-248) (natural protein)
